Source: the supplement of paper PMC9170038

These sequences were tested on K4 kissing-loop RNA reporter (assay: apparent KD of K4 kissing-loop reporter; higher = weaker reporter binding). Details: Eterna round: R107; input ligand: FMN 200 uM.
Description: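 RNA-MaP round R107: designed RNA switches with theophylline, tryptophan, arginine or FMN aptamers are transcribed on-chip within common flanks. They are titrated with a labelled K4 kissing-loop RNA reporter in RNA-MaP buffer (100 mM Tris pH 7.5, 80 mM KCl, 4 mM MgCl2), without ligand or with the indicated ligand. Median apparent KD per design.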
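Note: bound reporter read as fluorescence of individual clusters on recovered sequencing chips by microscopy, with normalized cluster intensities fitted with a binding model.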

| Sequence | apparent KD of K4 kissing-loop reporter |
| --- | --- |
| UCGGCGGAGUGAUGUUCCUAUGUCCAAGAUACCAGUCUAUGAACGGACCCUUGGCAGCUUCCAUUAGGUUACUAUUUAGACUCAU [theeternabot_exclusion_KL_Theo_A_10] | 190 nM |
| AGCAAAACCAAAGGAUAUUGGCAGUCGAUGUACCAUGUUCCCGUAGCAGGUUGAGUGAUGUUUAAGCAAGAAGGUUGGCGUUUGG [theeternabot_exclusion_KL_FMN_B_12] | 560 nM |
| UACUAUAGUGAUGUUAUAGAUAAACCAGAUACCAGUGUAACAUAACACCCUUGGCAGCUGAUGAGGGAACAUAUGAAUGCAUAUG [AstrosSSTHe-A#5newdesignED5.11] | 196 nM |
| GGCACUUUUGGUAGAAAACAUCUACCUCUAUAGGAUAUGCCGAAAGGCAGAAGGAUAGACCUACAGAGUGAUGUUCUGCGUGCCU | 874 nM |
| AGCGCUGCCUGAGGAUAUAGAAACGAGUGAUGUUCGUGGAUUGAUACCAGUGAUGUUGGCCUAUUUCUAGAAGGCAGGCGAUCGU [Exclusion FMN B GF2] | 172 nM |
| AUUAUAAAGGCGGCCGCCACUAGUGAUGUUAGUGACUAUAGUAUUAUCUAUAGAAUAAAAUAAAAUAGGACCGGGCCAAAAUAUU [AstrosExTryB#2] | 535 nM |
| GGUGACAACCAGAAGUGAUGUAUAGAAUAGCGAGGACCGGUACGGCCGCCACUCGUGAAGAGAAAGGAGUGAUGUUCCGUAAUGG [Kazoo C4] | 250 nM |
| AAGUGAUGUUGUAGUGAUGUUGUGAUGUUGCAGGAUAUAUAGUGAUGUAGAAGGGUAAGUACUCAUGUUGUUAGUAAGUGAUGUU [bttutmullin] | 91.5 nM |
| UAAAUCACACGAGAUACCAGCCAAACCGAACUUGAGCACUAUAGUGAUGUUAUAUUGCGAGGCCCUUGGCAGCUCAAUAGAACAA [theeternabot_sameState_KL_Theo_B_11] | 213 nM |
| AUUUUGGUUGAGAGUGAUGUUCCUUGUGUUCGAGGACCGGUACGGCCGCCACUCGGGUAGAAAAUAAAAGAAAUGUUUGAUUUUU [BDazzled - #11 SS Tryptophan A] | 242 nM |
| GUACGCUCUCGAGUGAUGUUCGGUAAUCGCGAGGAUAUCGCUUUUGCGAGAAGGCGCGGAAUGAGGAAACUCGUUCUGAGUGUAC [FMN A 23] | 364 nM |
| GCCGUACGCAUGGAUACCAGCAAGCAUAGCAGGAAACUGCUAUGCACCAGUGAUGUUGGAUGCCCUUGGCAGCCAUGCGUACGGC | 1250 nM |
| UGAUAGGACAGAAGGAGCGGUAGUGAUGUUACCAAAAGAAUAAGGUGUCAAAAGACACCCUGCCAGGUAGGUCGCUGUCCUAUCU | 97.4 nM |
| AGACUACCACACUGUCAAUAGACAGUGAAUUAGGAUAUGCUGAUAAGCAGAAGGAGUGAUGUUCCCAGGUAGUCAAUAAAAUAAU [FmnAX 13 U30+C66] | 169 nM |
| CUUGAGACAUGAGUGAUGUUCAUGUCCGAAGGAGCGUGCGAAAGCACAGGUAGGUCGCGGACGUGAGUGAUGUUCAUGUGAGCGA [KL-XArg-A10 #analogue] | 236 nM |
| UGGAGUUGACGAAAAGUCAACUCCUGAGAAGGAGCGGACGAAAGUCCAGGUAGGUCGCUCACUACCAGUGAUGUUGGUACUUGAA | 276 nM |
| UGUCAUUGGUCGGCCGCCACUAGAAGGUCAAAGACCAUAGAGUGAUGUUCUGAGACGAAAGUCACUAGGACCGGGACCGAUGACU [TrypBS 6 #SwitchBubble #K4Middle] | 462 nM |
| CGCGCGCGCGCGCGCGCGCGCGCGCGAAGUGAGGAUAUUUAGGGAGAAAGAAGGCACUAUAAAAUAUAGUGAUGUUAUAUAAGGG [SSFMNA.B] | 920 nM |
| GUACGCUCUCGAGUGAUGUUCGGUAAUAGUUAGGAUAUCGCUUUUGCGAGAAGGAACUGAAUGAGGAAACUCGUUCUGAGUGUAC [FMN A 18] | 618 nM |
| UGUAUGUGAUUUGAUACCAGACCAGCUGGUGGUGUAUGAGUGAUGUUCAUGCUGGUUUGGGUCCCUUGGCAGCAAAUCGCAUACU [KL-SSTheoB29] | 10.6 nM |
| GCACUCCAUCGGACGUAAGUGAUGUUUACCCGAGGACCGGUACGGCCGCCACUCGACCGUGCAUAACCAAAUCAAAUAGCUUCCG [theeternabot_exclusion_KL_Trp_A_31] | 143 nM |
| UGCGCUAUGUCCUAAAACGUCCUCCGGGAUACCAGUGUCUUUUUAUACCCUUGGCAGCUUGAGUGAUGUUUGAUGCCGUUCUUGU [izzxmullin] | 432 nM |

| Sequence | apparent KD of K4 kissing-loop reporter |
| --- | --- |
| CUGACCAACAGCGAUACCAGCGUGGAGUGAUGUUCCGUGGAUCGGAGUGAUGUUCCGAAGCGCCCUUGGCAGCGCAGAAGCAGGA [Exclusion Theophylline B GF11] | 197 nM |
| UGACUGGAUGGAAGGAGCGCUAAACUCCUAGUGAUGUUAGGGACAUGAGGCACAGCCUUGAAGCAGGUAGGUCGCCAUCUAGUCU [FiskerMod 28 - Jieux - Same State - Arginine B] | 197 nM |
| UGGGCUGCCUGAGGAUAUAGAGACGAGUGAUGUUCGUGGAUAAGAGCCAGUGAUGUUGGGUUAUUUCUAGAAGGCGGGCGAACUU [Exclusion FMN B GF8] | 105 nM |
| ACGAUUUACAGAAGGAGCGUGUAUUUAUCUACAAUUUUCUUAGCGAGUGAUGUUCGUUAUACACAGGUAGGUCGCUGUAUAUCGA [JR_ExcArginiB_Sub013] | 185 nM |
| UCCUCGAAUCGACCUCGAAAGAGGAUGGAUACCAGAGAAGAAAUUCUCCCUUGGCAGCCAGUGAUGUUGGAACGAGGUAAAUAAA [#SwitchBubble 20 #K4Late] | 508 nM |
| GUAUGUGGAAACACGUACUUAUAUCCUCGACAGGAUAUGCGGAAACGCAGAAGGGUCGCCAACGAGUUUAUCCAGUGAUGUUGGA [Ex FMN A 15] | 347 nM |
| GGUUUAUAAGAGGAUACCAGUACAAAUAAAGUACAUUAAUAGUAGAGUGAUGUUCUAAAGUACCCUUGGCAGCUUAGAUUAAGUU [ExTheophylB.F] | 114 nM |
| ACCAUCAAAGAUGGCCAGGACUCCGCUGAUACCAGAGUGGAAACACUCCCUUGGCAGCAGGUGAGUGAUGUUCACAGUCCAUGGA [Omel KL Theo A SS B v4] | 374 nM |
| GGGUCUGCCGGAAGGAGCGCACUAUGGAGUGAUGUUCCAUGACCGCACAGCUUGCGGUCAGUGCAGGUAGGUCGCCGGUAGCGUU [Inesor] | 163 nM |
| CUUGGCAUGCGCGAUACCAGCGAACAUAGCAAGCUACGGGUAGUGAUGUUAUCUGAAUAACGCCCUUGGCAGCGCACAUGCCGGC [clock] | 872 nM |
| CACCCUAGUUCAGAUACCAGACUAGAGACAGUGAUGUUGUCACAUCCUAAAUUGGGUGUAGUCCCUUGGCAGCUGAGUAAUCUGC [Theo B/Ex/SS double] | 600 nM |
| GGUAGCAUGGCGGCCGCCACUUCAAAUGGAGUGAUGUUCCAAGGCAUCGCGAAAGCGAUGCCAGGAAGGACCGGGCCAUGCUACC | 831 nM |
| GGAAGGAAGGAAACCAACCAACCAACCGAUACCAGCGGAAGAGAACGCCCUUGGCAGCGGAGAAAGCCAGUGAUGUUGGAAAGAA | 324 nM |
| AGUGUUAGGUUAGAUACCAGCCGUCUGUGGAUAAUCCACAGACCGCCAGUGAUGUUGGCAGGCCCUUGGCAGCUAACAGGACAGA [Riedingeus] | 239 nM |
| UUAGGCUCUCUUCUCAUUCGCUUAACCGAUACCAGAGUAAGCCCUCUCCCUUGGCAGCGGAGUGAUGUUCCGAGUGUUGAUAUUG [theeternabot_exclusion_KL_Theo_A_44] | 93.1 nM |
| AAACAUUGGUGCGAUACCAGCUGAUCGGAAACGAUCAUGCUGGAGUGAUGUUCCAGGAAAAGCCCUUGGCAGCGCACCGAUGAAA [MAT - Same State Theophlline B - Mod of Eli - D29] | 128 nM |
| UGACUACAUAAGGAUUAAUCCUAGUGAUGUUAGGAUAUGCUGAUAAGCAGAAGGAACGGAGAUCGAAGGAUCUCAUAUGUAGUCU [whbob_Ex_FMNA__2th195] | 457 nM |
| UAUGAAGGUGGAGGAUAUUGAUUGAAUCUUGGUCUGGAGUGAUGUUCCGGGAAGCCUUGGAUUCAUCGAGAAGGCCAAGGAUAGU [Extra 1] | 123 nM |
| AGCCAGCGUACAUCACUCUGGCUGCUGGAUACCAGCUCGGAAACGAGCCCUUGGCAGCCAGAACUUGCAGUGAUGUUGCAAGUAA [Design12] | 460 nM |
| CGCCGCAAGGCGAGCGCUCCCACUCCGGAAGGAGCGCCCGGAAGGGCAGGUAGGUCGCCGGAGUGAUGUUCCGGUGGAGGGCUCG [#2 Exclusion - Arginine A Attempt #13 (Inspired by Omei)] | 358 nM |
| UUCGUCGCGCAUGAUACCAGCGAGAUUUAACGCCGAAUCCUCACGCAGUGAUGUUGCACCCGCCCUUGGCAGCAUAGCCGGUUAC [theeternabot_sameState_KL_Theo_B_13] | 250 nM |

Same assay, conditions: Eterna round: R107; input ligand: arginine 13.2 mM

| Sequence | apparent KD of K4 kissing-loop reporter |
| --- | --- |
| UCGGCGGAGUGAUGUUCCUAUGUCCAAGAUACCAGUCUAUGAACGGACCCUUGGCAGCUUCCAUUAGGUUACUAUUUAGACUCAU [theeternabot_exclusion_KL_Theo_A_10] | 227 nM |
| AGCAAAACCAAAGGAUAUUGGCAGUCGAUGUACCAUGUUCCCGUAGCAGGUUGAGUGAUGUUUAAGCAAGAAGGUUGGCGUUUGG [theeternabot_exclusion_KL_FMN_B_12] | 302 nM |
| UACUAUAGUGAUGUUAUAGAUAAACCAGAUACCAGUGUAACAUAACACCCUUGGCAGCUGAUGAGGGAACAUAUGAAUGCAUAUG [AstrosSSTHe-A#5newdesignED5.11] | 166 nM |
| GGCACUUUUGGUAGAAAACAUCUACCUCUAUAGGAUAUGCCGAAAGGCAGAAGGAUAGACCUACAGAGUGAUGUUCUGCGUGCCU | 143 nM |
| AGCGCUGCCUGAGGAUAUAGAAACGAGUGAUGUUCGUGGAUUGAUACCAGUGAUGUUGGCCUAUUUCUAGAAGGCAGGCGAUCGU [Exclusion FMN B GF2] | 97.1 nM |
| AUUAUAAAGGCGGCCGCCACUAGUGAUGUUAGUGACUAUAGUAUUAUCUAUAGAAUAAAAUAAAAUAGGACCGGGCCAAAAUAUU [AstrosExTryB#2] | 411 nM |
| GGUGACAACCAGAAGUGAUGUAUAGAAUAGCGAGGACCGGUACGGCCGCCACUCGUGAAGAGAAAGGAGUGAUGUUCCGUAAUGG [Kazoo C4] | 260 nM |
| AAGUGAUGUUGUAGUGAUGUUGUGAUGUUGCAGGAUAUAUAGUGAUGUAGAAGGGUAAGUACUCAUGUUGUUAGUAAGUGAUGUU [bttutmullin] | 43.2 nM |
| UAAAUCACACGAGAUACCAGCCAAACCGAACUUGAGCACUAUAGUGAUGUUAUAUUGCGAGGCCCUUGGCAGCUCAAUAGAACAA [theeternabot_sameState_KL_Theo_B_11] | 174 nM |
| AUUUUGGUUGAGAGUGAUGUUCCUUGUGUUCGAGGACCGGUACGGCCGCCACUCGGGUAGAAAAUAAAAGAAAUGUUUGAUUUUU [BDazzled - #11 SS Tryptophan A] | 86.1 nM |
